The target of experiment [1] is GST-Mcl-1. Briefly: ELISA (format not described; target taken to be Mcl-1). In general terms: An ELISA detects its analyte on a solid surface through an enzyme-linked reagent.
The target of experiment [2] is GST-Mcl-1. In words: ELISA; the upper end is tied to 5b by Table 3 (25 nM against 340 nM).
Experiment [3] has as its target GST-Mcl-1. Briefly: competitive FP assay: displacement of fluorescein-labeled Bak from GST-Mcl-1.
For experiment [4], the target named is T1, GST-MDMX containing full-length human MDMX (human, UniProt O15151 1-490).
T1 construct: mature; MDMX', expressed in E. coli as a GST fusion; 'mature' stands for full-length; not shown: GST tag
T1 sequence (looked up): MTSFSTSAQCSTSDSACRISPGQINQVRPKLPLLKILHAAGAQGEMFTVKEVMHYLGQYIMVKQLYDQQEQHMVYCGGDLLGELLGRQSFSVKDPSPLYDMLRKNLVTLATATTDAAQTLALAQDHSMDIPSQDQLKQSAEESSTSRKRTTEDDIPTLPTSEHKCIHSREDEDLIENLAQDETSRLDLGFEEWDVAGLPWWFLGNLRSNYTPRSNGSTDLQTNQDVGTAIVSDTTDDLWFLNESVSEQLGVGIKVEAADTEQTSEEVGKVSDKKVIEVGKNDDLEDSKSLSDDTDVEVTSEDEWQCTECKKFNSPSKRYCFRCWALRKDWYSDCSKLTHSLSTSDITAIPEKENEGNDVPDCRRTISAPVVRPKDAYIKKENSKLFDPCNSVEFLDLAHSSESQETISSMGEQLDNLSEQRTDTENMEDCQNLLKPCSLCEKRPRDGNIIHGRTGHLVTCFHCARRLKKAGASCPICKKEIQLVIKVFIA
In words: competition ELISA: peptide inhibits GST-MDMX binding to coated His6-p53.

In experiment [5] the target is T2, GST-MDM2 containing full-length human MDM2 (human, UniProt Q00987 1-491).
T2 construct: mature; 'mature' stands for full-length; not shown: GST tag
T2 sequence (Q00987 whole entry): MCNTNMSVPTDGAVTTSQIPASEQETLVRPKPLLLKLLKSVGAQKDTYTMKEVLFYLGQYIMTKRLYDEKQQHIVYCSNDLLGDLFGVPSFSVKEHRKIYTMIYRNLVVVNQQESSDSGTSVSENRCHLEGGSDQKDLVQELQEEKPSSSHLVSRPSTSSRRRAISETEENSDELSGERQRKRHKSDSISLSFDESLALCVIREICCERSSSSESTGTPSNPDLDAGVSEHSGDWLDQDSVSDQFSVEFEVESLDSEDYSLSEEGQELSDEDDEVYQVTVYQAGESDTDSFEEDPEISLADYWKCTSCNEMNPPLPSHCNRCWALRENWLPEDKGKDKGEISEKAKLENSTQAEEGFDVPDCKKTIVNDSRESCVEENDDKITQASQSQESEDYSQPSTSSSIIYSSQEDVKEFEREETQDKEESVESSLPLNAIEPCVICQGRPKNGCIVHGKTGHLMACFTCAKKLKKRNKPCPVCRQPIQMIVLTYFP
In words: competition ELISA: peptide inhibits GST-MDM2 binding to coated His6-p53.

In experiment [6] the target is T1, GST-MDMX containing full-length human …. Briefly: competition ELISA, against linear peptide 3.
Experiment [7] deals with GST-Mcl-1. Briefly: competitive FP assay, against the parent linear peptide.
The target of experiment [8] is GST-Mcl-1. In words: fluorescence polarization assay, Mcl-1 against Bcl-xL. A general note: Polarisation of emitted light reports the rotation of a fluorescent probe.
Experiment [9] addresses GST-Mcl-1. Briefly: fluorescence polarization assay, labeled peptide on GST-Mcl-1.
Another experiment addresses GST-Bcl-xL. Briefly: fluorescence polarization assay, labeled peptide on GST-Bcl-xL.
Chain of GST-Bcl-xL (Q07817 whole entry): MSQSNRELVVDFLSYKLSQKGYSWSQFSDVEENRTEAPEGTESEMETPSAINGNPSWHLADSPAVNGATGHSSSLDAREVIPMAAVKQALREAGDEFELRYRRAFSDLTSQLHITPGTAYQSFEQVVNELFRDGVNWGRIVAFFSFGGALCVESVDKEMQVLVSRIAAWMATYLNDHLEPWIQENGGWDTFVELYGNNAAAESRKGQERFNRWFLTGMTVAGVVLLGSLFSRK
The target in experiment [10] is T2, GST-MDM2 containing full-length human …. Briefly: competition ELISA; reference not named in the sentence (peptide 1 or PDI).

Numbered stars: 1 amine (or outer) side, 2 acyl side, 3 side chain; on linkers, the order of the positions; unused ones are H or OH. Bridge positions count the residues as written; N and C are the ends. Square brackets hold non-standard residues; d marks the D form. Ends that are not written are not given here. CH2(3,3'-bipyridine-6,6')CH2 = c1cc(C[*:1])ncc1-c1ccc(C[*:2])nc1; Biphenyl(4,4'-CH2)2 = c1cc(-c2ccc(C[*:2])cc2)ccc1C[*:1]

Chain of GST-Mcl-1 (Q07820 whole entry): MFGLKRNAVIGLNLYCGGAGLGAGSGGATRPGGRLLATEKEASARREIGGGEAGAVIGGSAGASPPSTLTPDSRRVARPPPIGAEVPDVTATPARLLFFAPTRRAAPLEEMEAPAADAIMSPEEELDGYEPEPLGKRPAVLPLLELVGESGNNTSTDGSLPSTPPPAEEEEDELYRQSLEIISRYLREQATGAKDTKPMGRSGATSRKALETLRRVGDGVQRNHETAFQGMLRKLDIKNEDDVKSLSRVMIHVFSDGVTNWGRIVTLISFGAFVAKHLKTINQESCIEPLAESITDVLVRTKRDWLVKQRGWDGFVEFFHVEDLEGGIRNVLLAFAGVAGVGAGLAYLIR

B1: Cross-linked Noxa peptide 5b (Bpy, L,L-cysteines at 77/84) (peptide)
peptide: AAXLRRIGDXVNLRQKLLN
modifications: Cys 3 and Cys 10 of the peptide (NoxaB 77 and 84) cross-linked by Bpy; N-terminal acetyl; C-terminal amide
As to B1, the figures for the IC50 with GST-Mcl-1 [1] and in the experiment with GST-Mcl-1 [3] were 25 nM and 45 nM, respectively. For the same molecule, the “fold improvement over the parent peptide” value with GST-Mcl-1 [2] stood at 14 fold.

B2: PDI analog 4b (Bpy cross-linked D,L-dicysteine peptide, two arginines) (peptide)
peptide: Ac-LTF[dC]RYWARLCS-NH2
modifications: linker 4-11 via CH2(3,3'-bipyridine-6,6')CH2
SMILES: CC(=O)N[C@@H](CC(C)C)C(=O)N[C@H](C(=O)N[C@@H](Cc1ccccc1)C(=O)N[C@@H]1CSCc2ccc(cn2)-c2ccc(nc2)CSC[C@@H](C(=O)N[C@@H](CO)C(N)=O)NC(=O)[C@H](CC(C)C)NC(=O)[C@H](CCCNC(=N)N)NC(=O)[C@H](C)NC(=O)[C@H](Cc2c[nH]c3ccccc23)NC(=O)[C@H](Cc2ccc(O)cc2)NC(=O)[C@H](CCCNC(=N)N)NC1=O)[C@@H](C)O
notes: Printed as LTFc"RYWARLC"S
For the molecule B2, the half-maximal inhibitory concentration (IC50) – broadly, the point on the concentration scale where inhibition reaches its midpoint – in [4] worked out at 1150 nM.

B3: Cross-linked Noxa peptide 8a (Bph, alpha-methyl-L-cysteines at 77/84) (peptide)
peptide: AAXLRRIGDXVNLRQKLLN
modifications: alpha-methyl-L-cysteine at positions 3 and 10, cross-linked by Bph; N-terminal acetyl; C-terminal amide
With B3, the IC50 with GST-Mcl-1 [3] turned out to be 230 nM.

B4: Cross-linked Noxa peptide 6b (Bpy, D-Cys 77 / L-Cys 84) (peptide)
peptide: AAXLRRIGDXVNLRQKLLN
modifications: D-cysteine at position 3; D-Cys 3 and L-Cys 10 cross-linked by Bpy; N-terminal acetyl; C-terminal amide
For the molecule B4, the IC50 with GST-Mcl-1 [1] and with GST-Mcl-1 [3] was 140 nM throughout.

B5: PDI analog 2a (Bph cross-linked, two arginines) (peptide)
peptide: Ac-LTFCRYWARLCS-NH2
modifications: linker 4-11 via Biphenyl(4,4'-CH2)2
notes: Printed as LTFC'RYWARLC'S
Consider B5, for which the 50% inhibitory concentration (IC50) in experiment [5] came to 244 nM; in experiment [4] it was 5520 nM.

B6: PDI analog 3b (Bpy cross-linked D,L-dicysteine peptide) (peptide)
peptide: Ac-LTF[dC]HYWAQLCS-NH2
modifications: linker 4-11 via CH2(3,3'-bipyridine-6,6')CH2
SMILES: CC(=O)N[C@@H](CC(C)C)C(=O)N[C@H](C(=O)N[C@@H](Cc1ccccc1)C(=O)N[C@@H]1CSCc2ccc(cn2)-c2ccc(nc2)CSC[C@@H](C(=O)N[C@@H](CO)C(N)=O)NC(=O)[C@H](CC(C)C)NC(=O)[C@H](CCC(N)=O)NC(=O)[C@H](C)NC(=O)[C@H](Cc2c[nH]c3ccccc23)NC(=O)[C@H](Cc2ccc(O)cc2)NC(=O)[C@H](Cc2c[nH]cn2)NC1=O)[C@@H](C)O
notes: Printed as LTFc"HYWAQLC"S
Take B6: in [6], the “fold increase in MDMX activity” value was 24 fold. Also, the values for the half-inhibitory concentration (IC50) in experiment [5] and in experiment [4] were 5.4 nM and 14 nM, respectively.

B7: PDI analog 1b (Bpy cross-linked L,L-dicysteine peptide) (peptide)
peptide: Ac-LTFCHYWAQLCS-NH2
modifications: linker 4-11 via CH2(3,3'-bipyridine-6,6')CH2
SMILES: CC(=O)N[C@@H](CC(C)C)C(=O)N[C@H](C(=O)N[C@@H](Cc1ccccc1)C(=O)N[C@H]1CSCc2ccc(cn2)-c2ccc(nc2)CSC[C@@H](C(=O)N[C@@H](CO)C(N)=O)NC(=O)[C@H](CC(C)C)NC(=O)[C@H](CCC(N)=O)NC(=O)[C@H](C)NC(=O)[C@H](Cc2c[nH]c3ccccc23)NC(=O)[C@H](Cc2ccc(O)cc2)NC(=O)[C@H](Cc2c[nH]cn2)NC1=O)[C@@H](C)O
notes: Printed as LTFC"HYWAQLC"S (C" = Bpy-linked cysteine)
On to B7, for which the IC50 in experiment [5] came to 35 nM; in experiment [4] it was 890 nM.

B8: PDI analog 2b (Bpy cross-linked, two arginines) (peptide)
peptide: Ac-LTFCRYWARLCS-NH2
modifications: linker 4-11 via CH2(3,3'-bipyridine-6,6')CH2
SMILES: CC(=O)N[C@@H](CC(C)C)C(=O)N[C@H](C(=O)N[C@@H](Cc1ccccc1)C(=O)N[C@H]1CSCc2ccc(cn2)-c2ccc(nc2)CSC[C@@H](C(=O)N[C@@H](CO)C(N)=O)NC(=O)[C@H](CC(C)C)NC(=O)[C@H](CCCNC(=N)N)NC(=O)[C@H](C)NC(=O)[C@H](Cc2c[nH]c3ccccc23)NC(=O)[C@H](Cc2ccc(O)cc2)NC(=O)[C@H](CCCNC(=N)N)NC1=O)[C@@H](C)O
notes: Printed as LTFC"RYWARLC"S
In the case of B8, the half-maximal inhibitory concentration (IC50) in experiment [4] turned out to be 1520 nM.

B9: Cross-linked Noxa peptide 5a (Bph, L,L-cysteines at 77/84) (peptide)
peptide: AAXLRRIGDXVNLRQKLLN
modifications: Cys 3 and Cys 10 of the peptide (NoxaB 77 and 84) cross-linked by Bph; N-terminal acetyl; C-terminal amide
As for B9, in the experiment with GST-Mcl-1 [7], the “fold increase in activity” value stood at 67 fold. For the same molecule, the half-inhibitory concentration (IC50) in the experiment with GST-Mcl-1 [1] worked out at 75 nM; with GST-Mcl-1 [3] it was 18 nM.

B10: PDI analog 4a (Bph cross-linked D,L-dicysteine peptide, two arginines) (peptide)
peptide: Ac-LTF[dC]RYWARLCS-NH2
modifications: linker 4-11 via Biphenyl(4,4'-CH2)2
notes: Printed as LTFc'RYWARLC'S
Regarding B10, the results for the half-inhibitory concentration (IC50) in [5] and in experiment [4] were 208 nM and 4490 nM, respectively.

B11: Fluorescein-labeled cross-linked Noxa peptide 6a (peptide)
peptide: AAXLRRIGDXVNLRQKLLN
modifications: N-terminal FITC-Ahx; D-cysteine at position 3; D-Cys 3 and L-Cys 10 cross-linked by Bph; C-terminal amide
notes: also called Fl-6a; Fluo-6a
With B11, the “fold selectivity for Mcl-1 over Bcl-xL” value with GST-Mcl-1 [8] was over 2000 fold. For the same molecule, the dissociation constant Kd (usually the concentration at which binding is half-saturated) with GST-Mcl-1 [9] is 0.7 nM; with GST-Bcl-xL it was over 2000 nM.

B12: Cross-linked Noxa peptide 7a (Bph, L,L-cysteines at 80/87) (peptide)
peptide: Ac-AAQLRCIGDKVNCRQKLLN-NH2
modifications: linker 6-13 via Biphenyl(4,4'-CH2)2
SMILES: CC[C@H](C)[C@@H]1NC(=O)[C@@H](NC(=O)[C@H](CCCNC(=N)N)NC(=O)[C@H](CC(C)C)NC(=O)[C@H](CCC(N)=O)NC(=O)[C@H](C)NC(=O)[C@H](C)NC(C)=O)CSCc2ccc(cc2)-c2ccc(cc2)CSC[C@@H](C(=O)N[C@@H](CCCNC(=N)N)C(=O)N[C@@H](CCC(N)=O)C(=O)N[C@@H](CCCCN)C(=O)N[C@@H](CC(C)C)C(=O)N[C@@H](CC(C)C)C(=O)N[C@@H](CC(N)=O)C(N)=O)NC(=O)[C@H](CC(N)=O)NC(=O)[C@H](C(C)C)NC(=O)[C@H](CCCCN)NC(=O)[C@H](CC(=O)O)NC(=O)CNC1=O
notes: Printed as AAQLRC'IGDKVNC'RQKLLN
As to B12, the half-inhibitory concentration (IC50) amounted to 37 nM in the experiment with GST-Mcl-1 [1] and 32 nM with GST-Mcl-1 [3].

B13: Cross-linked Noxa peptide 6a (Bph, D-Cys 77 / L-Cys 84) (peptide)
peptide: AAXLRRIGDXVNLRQKLLN
modifications: D-cysteine at position 3; D-Cys 3 and L-Cys 10 cross-linked by Bph; N-terminal acetyl; C-terminal amide
As for B13, the “fold increase in activity” value with GST-Mcl-1 [7] came to 37 fold. The figures for the IC50 with GST-Mcl-1 [1] and in the experiment with GST-Mcl-1 [3] were 260 nM and 73 nM, respectively.

B14: Fluorescein-labeled cross-linked Noxa peptide 5a (peptide)
peptide: AAXLRRIGDXVNLRQKLLN
modifications: N-terminal FITC-Ahx; Cys 3 and Cys 10 cross-linked by Bph; C-terminal amide
notes: also called Fl-5a; Fluo-5a
Consider B14, for which the “fold selectivity for Mcl-1 over Bcl-xL” value with GST-Mcl-1 [8] was over 2000 fold. The dissociation constant Kd was 0.8 nM in the experiment with GST-Mcl-1 [9] and over 2000 nM in the experiment with GST-Bcl-xL.

B15: PDI analog 1a (Bph cross-linked L,L-dicysteine peptide) (peptide)
peptide: Ac-LTFCHYWAQLCS-NH2
modifications: linker 4-11 via Biphenyl(4,4'-CH2)2
notes: Printed as LTFC'HYWAQLC'S (C' = Bph-linked cysteine)
On to B15, for which the 50% inhibitory concentration (IC50) was determined as 39 nM in experiment [5] and 4810 nM in experiment [4].

B16: PDI analog 3a (Bph cross-linked D,L-dicysteine peptide) (peptide)
peptide: Ac-LTF[dC]HYWAQLCS-NH2
modifications: linker 4-11 via Biphenyl(4,4'-CH2)2
SMILES: CC(=O)N[C@@H](CC(C)C)C(=O)N[C@H](C(=O)N[C@@H](Cc1ccccc1)C(=O)N[C@@H]1CSCc2ccc(cc2)-c2ccc(cc2)CSC[C@@H](C(=O)N[C@@H](CO)C(N)=O)NC(=O)[C@H](CC(C)C)NC(=O)[C@H](CCC(N)=O)NC(=O)[C@H](C)NC(=O)[C@H](Cc2c[nH]c3ccccc23)NC(=O)[C@H](Cc2ccc(O)cc2)NC(=O)[C@H](Cc2c[nH]cn2)NC1=O)[C@@H](C)O
notes: Printed as LTFc'HYWAQLC'S
On to B16, for which the “fold increase in MDMX activity” value in [6] is 15 fold. In addition, the half-inhibitory concentration (IC50) worked out at 8.3 nM in experiment [5] and 22 nM in experiment [4].

B17: PDI analog 3 (linear (D,L)-dicysteine peptide) (peptide)
peptide: LTF[dC]HYWAQLCS-NH2
modifications: not fully specified (N-terminus); printed as LTFcHYWAQLCS; cysteine pairing not given here
notes: not cross-linked; also called peptide 3
Regarding B17, the “fold increase in MDM2 activity” value in experiment [10] was over 3 fold. For the same molecule, the figures for the IC50 in experiment [5] and in experiment [4] were 13 nM and 339 nM, respectively.

B18: PDI analog 1 (linear L,L-dicysteine peptide) (peptide)
peptide: Ac-LTFCHYWAQLCS-NH2
modifications: cysteine pairing not given here
notes: not cross-linked; also called peptide 1
Regarding B18, the values for the half-inhibitory concentration (IC50) in experiment [5] and in experiment [4] were 57 nM and 1850 nM, respectively.

For the origin of these results see patent US20140057857A1 (RESEARCH FOUNDATION FOR THE STATE UNIVERSITY OF NEW YORK, published 2014).
